Laboratory results as given in patent publication US20250163182A1 (Janssen / Centocor, published 2025).

Experiments:
human ENPP3 on cells [1] = target: T1, human ENPP3 on cells (human, UniProt O14638 1-875); test: cell-based or functional assay
T1 sequence (looked up): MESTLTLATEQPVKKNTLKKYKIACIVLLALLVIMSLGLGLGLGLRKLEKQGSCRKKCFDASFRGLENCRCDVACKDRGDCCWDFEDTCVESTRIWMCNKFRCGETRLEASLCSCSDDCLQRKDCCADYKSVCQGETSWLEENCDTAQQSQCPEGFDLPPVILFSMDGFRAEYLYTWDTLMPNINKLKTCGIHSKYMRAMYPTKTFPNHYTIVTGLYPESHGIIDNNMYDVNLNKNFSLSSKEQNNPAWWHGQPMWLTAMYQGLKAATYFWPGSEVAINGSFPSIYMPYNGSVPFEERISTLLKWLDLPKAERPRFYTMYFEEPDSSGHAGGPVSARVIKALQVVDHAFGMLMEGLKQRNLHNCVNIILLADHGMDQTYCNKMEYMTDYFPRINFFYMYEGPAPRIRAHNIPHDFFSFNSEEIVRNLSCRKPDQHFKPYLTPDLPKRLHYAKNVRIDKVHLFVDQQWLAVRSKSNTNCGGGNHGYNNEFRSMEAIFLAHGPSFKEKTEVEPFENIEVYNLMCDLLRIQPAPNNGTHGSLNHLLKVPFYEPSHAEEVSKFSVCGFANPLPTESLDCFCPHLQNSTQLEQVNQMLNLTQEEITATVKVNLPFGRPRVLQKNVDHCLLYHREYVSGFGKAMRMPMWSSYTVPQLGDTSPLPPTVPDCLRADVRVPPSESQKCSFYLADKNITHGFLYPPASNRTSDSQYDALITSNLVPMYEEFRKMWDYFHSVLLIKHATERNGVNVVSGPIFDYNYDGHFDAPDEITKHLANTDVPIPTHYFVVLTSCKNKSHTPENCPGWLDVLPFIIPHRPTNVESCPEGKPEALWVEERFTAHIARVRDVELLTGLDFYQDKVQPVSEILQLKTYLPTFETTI

human ENPP3 on cells [2] = target: T1, human ENPP3 on cells; test: flow cytometry on CHO ENPP3 OE cells
human CD3 on T cells = target: T2, human CD3 on T cells (human, UniProt P07766 23-207); test: flow cytometry on human T cells, average of 6 donors
T2 construct: on T cells it stands in the TCR-CD3 complex; also called human T cells; T cells isolated from healthy human donors
T2 sequence (P07766 23-207 limits assumed): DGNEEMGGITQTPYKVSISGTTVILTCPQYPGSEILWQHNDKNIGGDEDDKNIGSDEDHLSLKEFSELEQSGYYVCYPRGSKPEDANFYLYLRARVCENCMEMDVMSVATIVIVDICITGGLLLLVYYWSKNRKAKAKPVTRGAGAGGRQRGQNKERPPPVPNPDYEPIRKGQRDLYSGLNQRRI

B1: NPP3B815 (bispecific antibody, human IgG1, kappa, L234A L235A)
heavy 1: EIVLTQSPATLSASPGERVTLSCSASSSVSYMNWYQQKPGCAPRRWIYDSSKLASGVPARFSGSGSGRDYTLTISSLEPEDFAVYYCQQWSRNPPTFGGGTKVEIKGGGSGGSGGCPPCGGSGGQVQLVQSGAEVKKPGSSVKVSCKASGYTFTRSTMHWVKQAPGQGLEWIGYINPSSAYTNYNQKFQGRVTLTADKSTSTAYMELSSLRSEDTAVYYCASPQVHYDYAGFPYWGCGTLVTVSSEPKSSDKTHTCPPCPAPEAAGGPSVFLFPPKPKDTLMISRTPEVTCVVVSVSHEDPEVKFNWYVDGVEVHNAKTKPREEQYNSTYRVVSVLTVLHQDWLNGKEYKCKVSNKALPAPIEKTISKAKGQPREPQVYTLPPSREEMTKNQVSLWCLVKGFYPSDIAVEWESNGQPENNYKTTPPVLDSDGSFFLYSKLTVDKSRWQQGNVFSCSVMHEALHNHYTQKSLSLSPGK
heavy 2: EVQLVESGGGRVKPGGSLRLSCAASGFTFSDYSMNWVRQAPGKGLEWVSSISSISSYVKYADSVKGRFTMSRDNAKNSLFLQMNSLRDEDMAVYYCARGHYFDYWGQGTLVTVSSASTKGPSVFPLAPSSKSTSGGTAALGCLVKDYFPEPVTVSWNSGALTSGVHTFPAVLQSSGLYSLSSVVTVPSSSLGTQTYICNVNHKPSNTKVDKKVEPKSCDKTHTCPPCPAPEAAGGPSVFLFPPKPKDTLMISRTPEVTCVVVSVSHEDPEVKFNWYVDGVEVHNAKTKPREEQYNSTYRVVSVLTVLHQDWLNGKEYKCKVSNKALPAPIEKTISKAKGQPREPQVYTLPPSREEMTKNQVSLSCAVKGFYPSDIAVEWESNGQPENNYKTTPPVLDSDGSFFLVSKLTVDKSRWQQGNVFSCSVMHEALHNRFTQKSLSLSPGK
light: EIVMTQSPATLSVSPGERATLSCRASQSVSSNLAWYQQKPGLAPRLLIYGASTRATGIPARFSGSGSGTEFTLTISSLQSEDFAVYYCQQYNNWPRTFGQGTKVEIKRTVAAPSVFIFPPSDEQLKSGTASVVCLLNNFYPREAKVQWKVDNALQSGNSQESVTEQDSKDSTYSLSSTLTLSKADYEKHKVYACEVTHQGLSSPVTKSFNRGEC
notes: HC2 carries the NPP3B56 Fab and the hole T366S, L368A, Y407V; Fc with L234A, L235A, D265S; The CPPC linker cysteines form disulfides with engineered Cys at L42 and H105 (Chothia); also called NPP3B56×CD3B2030-N106A; ENPP3×CD3 (NPP3B815)
killing EC50; A704; PBMC donor 110040278; E:T 3:1 (human ENPP3 on cells [1]): 0.052 nM | killing EC50; A704; PBMC donor 110040278; E:T 5:1 (human ENPP3 on cells [1]): 0.028 nM | killing EC50; A704; PBMC donor 110042496; E:T 3:1 (human ENPP3 on cells [1]): 0.097 nM | killing EC50; A704; PBMC donor 110042496; E:T 5:1 (human ENPP3 on cells [1]): 0.061 nM | killing EC50; A704; PBMC donor 110042593; E:T 1:1 (human ENPP3 on cells [1]): 0.124 nM | killing EC50; A704; PBMC donor 110042593; E:T 3:1 (human ENPP3 on cells [1]): 0.039 nM | killing EC50; A704; PBMC donor 110042593; E:T 5:1 (human ENPP3 on cells [1]): 0.015 nM | killing EC50; A704; PBMC donor 110044049; E:T 1:1 (human ENPP3 on cells [1]): 0.131 nM | killing EC50; A704; PBMC donor 110044049; E:T 3:1 (human ENPP3 on cells [1]): 0.052 nM | killing EC50; A704; PBMC donor 110044049; E:T 5:1 (human ENPP3 on cells [1]): 0.016 nM | killing EC50; A704; PBMC donor 110048457; E:T 3:1 (human ENPP3 on cells [1]): 0.046 nM | killing EC50; A704; PBMC donor 110048457; E:T 5:1 (human ENPP3 on cells [1]): 0.013 nM | killing EC50; A704; PBMC donor 888668965; E:T 1:1 (human ENPP3 on cells [1]): 0.107 nM | killing EC50; A704; PBMC donor 888668965; E:T 3:1 (human ENPP3 on cells [1]): 0.036 nM | killing EC50; A704; PBMC donor 888668965; E:T 5:1 (human ENPP3 on cells [1]): 0.015 nM | killing EC50; VMRCRCW; PBMC donor 110040278; E:T 5:1 (human ENPP3 on cells [1]): 0.033 nM | killing EC50; VMRCRCW; PBMC donor 110042496; E:T 5:1 (human ENPP3 on cells [1]): 0.065 nM | killing EC50; VMRCRCW; PBMC donor 110042593; E:T 5:1 (human ENPP3 on cells [1]): 0.033 nM | killing EC50; VMRCRCW; PBMC donor 110044049; E:T 5:1 (human ENPP3 on cells [1]): 0.051 nM | killing EC50; VMRCRCW; PBMC donor 110048457; E:T 5:1 (human ENPP3 on cells [1]): 0.063 nM | killing EC50; VMRCRCW; PBMC donor 888668965; E:T 5:1 (human ENPP3 on cells [1]): 0.062 nM | EC50 (human ENPP3 on cells [2]): 0.51 nM | EC50 (human CD3 on T cells): 177 nM
